Assay results taken from paper PMC5207143.

Tests used:
[1] = biological target: FcγRIIB on Raji cells (human (endogenous in Raji)) (UniProt P31994)
[2] = biological target: human FcγRIIA receptor, Arg131 allotype (on transfected Expi293F cells) (human); experiment: flow cytometry on cells; Expi293F cells transiently transfected with a human Fcγ receptor, 48 h after transfection; 1 to 10000 ng/ml test antibody, 1.5 h at 4 °C; R-phycoerythrin anti-human IgG secondary antibody; EC50 by nonlinear regression of mean fluorescence
[3] = biological target: human FcγRIIB receptor (on transfected Expi293F cells) (human) (UniProt P31994); experiment: as above
[4] = biological target: OX40SF2IgG1E345R/E430G/S440Y (human); experiment: SEC-MALS; purified antibody in solution; monomeric peak and a ∼900 kDa peak

human FcγRIIA receptor, Arg131 allotype (on transfected Expi293F cells) (human), sequence (P12318 other isoform, or with tags, fused parts or gaps): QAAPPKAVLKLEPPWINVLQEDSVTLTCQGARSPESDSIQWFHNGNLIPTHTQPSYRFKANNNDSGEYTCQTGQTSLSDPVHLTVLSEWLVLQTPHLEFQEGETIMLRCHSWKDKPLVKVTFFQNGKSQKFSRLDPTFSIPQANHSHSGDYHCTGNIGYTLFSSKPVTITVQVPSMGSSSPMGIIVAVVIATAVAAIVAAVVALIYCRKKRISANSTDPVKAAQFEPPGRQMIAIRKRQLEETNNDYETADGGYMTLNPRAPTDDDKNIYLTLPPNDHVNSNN

Row | agonism in the HEK-Blue NF-κB reporter assay, HEK-Blue:OX40 cells co-cultured with Raji cells, 10 to 1000 ng/ml antibody; decreased when Raji cells were pre-blocked with 5 μg/ml 2B6 [1] [fold] | EC50 [2] [nM] | fold more potent EC50 than OX40SF2IgG1 [2] [fold] | EC50 [3] [nM] | stoichiometry N [4] | Binder
1 | > 2 | 1.5 | 20 | 3.1 |  | OX40SF2IgG1S267E/L328F (antibody, V domains shown) VH: QVQLVQSGAEVKKPGSSVKVSCKASGYTFKDYTMHWVRQAPGQGLEWIGGIYPNNGGSTYNQNFKDRVTLTADKSTSTAYMELSSLRSEDTAVYYCARMGYHGPHLDFDVWGQGTTVTVSS VL: DIQMTQSPSSLSASVGDRVTITCKASQDVGAAVAWYQQKPGKAPKLLIYWASTRHTGVPSRFSGSGSGTDFTLTISSLQPEDFATYYCQQYINYPLTFGGGTKVEIK
2 |  |  |  |  | 6 | OX40SF2IgG1E345R/E430G/S440Y (antibody, V domains shown) VH: QVQLVQSGAEVKKPGSSVKVSCKASGYTFKDYTMHWVRQAPGQGLEWIGGIYPNNGGSTYNQNFKDRVTLTADKSTSTAYMELSSLRSEDTAVYYCARMGYHGPHLDFDVWGQGTTVTVSS VL: DIQMTQSPSSLSASVGDRVTITCKASQDVGAAVAWYQQKPGKAPKLLIYWASTRHTGVPSRFSGSGSGTDFTLTISSLQPEDFATYYCQQYINYPLTFGGGTKVEIK
